Results from PMC12210187.

Target: Stenotrophomonas maltophilia EntB (Stenotrophomonas maltophilia K279a)
Assay: SEC; analytical size-exclusion chromatography; estimated molecular weight 61.8 kDa

stoichiometry N: 2
Substance: Stenotrophomonas maltophilia EntB (enzyme)
